Experimental data taken from article PMC13082707, “Role of the C-terminal modules of Klebsiella phage KP32 receptor-binding protein gp38 in protein and phage functionality” (PLOS Pathogens, 2026).

Legend:
[1] = target: GFP_KP32gp38_LIN-CBM-LEC (Klebsiella phage KP32); assay: SEC-MALS; SEC-MALLS of selected KP32gp38 variants to assess the molecular weight of their oligomeric state, buffer and concentrations not told
[2] = target: KP32gp38_CP-E-LIN_K11gp0043_CBM-LEC (Klebsiella phage KP32 | Klebsiella phage K11); assay: as above
[3] = target: KP32gp38_CP-E_K11gp0043_LIN-CBM-LEC (Klebsiella phage KP32 | Klebsiella phage K11); assay: as above
[4] = target: KP32gp38_LEC (Klebsiella phage KP32); assay: as above
[5] = target: KP32gp38_LIN-CBM-LEC (Klebsiella phage KP32); assay: as above
[6] = target: KP32gp38_Δ(LIN-CBM) (Klebsiella phage KP32); assay: as above
[7] = target: KP32gp38_ΔCBM (Klebsiella phage KP32); assay: as above
[8] = target: KP32gp38_ΔLEC (Klebsiella phage KP32)
[9] = target: KP32gp38_ΔLEC (Klebsiella phage KP32); assay: SEC-MALS; SEC-MALLS of selected KP32gp38 variants to assess the molecular weight of their oligomeric state, buffer and concentrations not told
[10] = target: the molecule itself; assay: as above

GFP_KP32gp38_LIN-CBM-LEC (domain or fragment)
stoichiometry N [1]: 3

KP32gp38_CP-E-LIN_K11gp0043_CBM-LEC
stoichiometry N [2]: 3

KP32gp38_CP-E_K11gp0043_LIN-CBM-LEC
stoichiometry N [3]: 3

KP32gp38_LEC (domain or fragment)
stoichiometry N [4]: > 25

KP32gp38_LIN-CBM-LEC (domain or fragment)
stoichiometry N [5]: 3

KP32gp38_Δ(LIN-CBM) (domain or fragment)
stoichiometry N [6]: 3

KP32gp38_ΔCBM (domain or fragment)
stoichiometry N [7]: 3

KP32gp38_ΔLEC (domain or fragment)
enzymatic activity (halo formation on K21/KL163 lawns) compared to the WT [8]: 1000 fold | percent dimers [9]: 10% | stoichiometry N [9]: 2

B1: KP32gp38_WT, receptor-binding protein 2 (RBP2) of Klebsiella phage KP32 (natural protein, UniProt D1L2X1 1-576, looked up)
chain: MLDNFNQPKGSTIGVLKDGRTIQEAFDSLPRLESFSGSTATDKLRAAITLGVSEVAIGPVEGNGGRPYEFGDVVIPYPLRIVGCGSQGINVTKGTVLKRSAGASFMFHFTGEGQAQRPMGGGLFNINLNGDTATALGDIIKVTQWSYFKANNCAFQNMAGWGIRLKDVMESNISGNLFRRLGGPSGGGILFDDVRSAVTDNVNNLHIEDNTFALMSGPWIGSTANSNPDLIWIVRNKFEFDGTPAAPNTVDSYVLDFQQLSRAFIQDNGFTHFTTERNRYVGVLRVGATAVGTIKFEDNLLFACESAGLIAGGIVVSRGNVNNQGSATTAIKQFTNTSSKLCKLERVINVQSNGNVSVGQQILPDGYINMAELPGNTRLPSEYDADGETTSVLRVPANTQVRQWSVPKMYKDGLTVTKVTVRAKGAAAGAILSLQSGSTVLSTKSIDAGVWKNYVFYVKANQLQETLQLRNTGTADVLADGMVFGKVDYIDWDFAIAPGTLAAGAKYTTPNQSYLDVAGMRVQAVSIPMFDGPTTGLQVWVEATSANGSFVVVMKNDTGSELVTTVTRCRVRAFVS
notes: KP32gp38 (RBP2, capsule depolymerase/tailspike) of Klebsiella phage KP32; domains CP-E-LIN-CBM-LEC; Expressed from pVTD3 (C-terminal His-tag); also called KP32gp38 WT depolymerase; source: E. coli BL21(DE3), purified (His GraviTrap or HisPur Ni-NTA)
stoichiometry N [10]: 3
